Measurements taken from IntAct's records for PubMed 21217703.

B1: DNA-binding protein RAP1 (Saccharomyces cerevisiae), P11938 (parent)
chain: MSSPDDFETAPAEYVDALDPSMVVVDSGSAAVTAPSDSAAEVKANQNEENTGATAAETSEKVDQTEVEKKDDDDTTEVGVTTTTPSIADTAATANIASTSGASVTEPTTDDTAADEKKEQVSGPPLSNMKFYLNRDADAHDSLNDIDQLARLIRANGGEVLDSKPRESKENVFIVSPYNHTNLPTVTPTYIKACCQSNSLLNMENYLVPYDNFREVVDSRLQEESHSNGVDNSNSNSDNKDSIRPKTEIISTNTNGATEDSTSEKVMVDAEQQARLQEQAQLLRQHVSSTASITSGGHNDLVQIEQPQKDTSNNNNSNVNDEDNDLLTQDNNPQTADEGNASFQAQRSMISRGALPSHNKASFTDEEDEFILDVVRKNPTRRTTHTLYDEISHYVPNHTGNSIRHRFRVYLSKRLEYVYEVDKFGKLVRDDDGNLIKTKVLPPSIKRKFSADEDYTLAIAVKKQFYRDLFQIDPDTGRSLITDEDTPTAIARRNMTMDPNHVPGSEPNFAAYRTQSRRGPIAREFFKHFAEEHAAHTENAWRDRFRKFLLAYGIDDYISYYEAEKAQNREPEPMKNLTNRPKRPGVPTPGNYNSAAKRARNYSSQRNVQPTANAASANAAAAAAAAASNSYAIPENELLDEDTMNFISSLKNDLSNISNSLPFEYPHEIAEAIRSDFSNEDIYDNIDPDTISFPPKIATTDLFLPLFFHFGSTRQFMDKLHEVISGDYEPSQAEKLVQDLCDETGIRKNFSTSILTCLSGDLMVFPRYFLNMFKDNVNPPPNVPGIWTHDDDESLKSNDQEQIRKLVKKHGTGRMEMRKRFFEKDLL
B2: DNA-binding protein rap1 (Schizosaccharomyces pombe (strain ATCC 38366 / 972)), Q96TL7 (parent)
chain: MSFTFTKSDGSSILFAVSKNFEHIRGFKNAIDCFKGKIEFLSFDKVDPTKHDYYLVAEDERVSDLDIPKGFFERNPEFRHKMLKIAWITQCIEQGKLLPTESFEVELNQDDVNRTHDGFRKRELFTLEDEKILIDHVHKNDINRFGTKVYEELARKYPQHSLESWRQHYKYMKKRLPPVSDSDESNYCQRIIVKPYSSQKDYTQSTHEQTLSSPISKSASVSKSENKALVNNKRYSDSYFYFSKMRRISIDVDYVDEDLNLINAYLSQFGKKRSLNELCALLSRRFSNRHTFSEWRALFMHFFPFINSEGVDPAILSDRETSAMLDETSDNEVADIDDQMIERKYLFSASEPNTVKSTNRLIFSERKAYAADDSIDNTPSKVPIVNSLSDPRTNRPFFYSNPDSMYRSISNPLHLVDSQHLSPLNRKTHFNNPIGQPQFTCLDDHEKTLRETSFRSLDDMSLRKSNSDNIFVKPGEDLEIPLLSDYSDSENISEKSSDDEEAFEKQVTSSYSSPIKVKSQGKSSKGSSGLDVREHEGSDDDAEVFVDRSPESFGATKVAHTSLEGNAASHKKVEENMQQPVTKKQKKYRMVNEEAHTGPTIIIPSDNNEKVTTLPAGHVPSEEKGKFINLAMHELQNEVSILRSSVNHREVDEAIDNILRYTNSTEQQFLEAMESTGGRVRIAIAKLLSKQTS
partner: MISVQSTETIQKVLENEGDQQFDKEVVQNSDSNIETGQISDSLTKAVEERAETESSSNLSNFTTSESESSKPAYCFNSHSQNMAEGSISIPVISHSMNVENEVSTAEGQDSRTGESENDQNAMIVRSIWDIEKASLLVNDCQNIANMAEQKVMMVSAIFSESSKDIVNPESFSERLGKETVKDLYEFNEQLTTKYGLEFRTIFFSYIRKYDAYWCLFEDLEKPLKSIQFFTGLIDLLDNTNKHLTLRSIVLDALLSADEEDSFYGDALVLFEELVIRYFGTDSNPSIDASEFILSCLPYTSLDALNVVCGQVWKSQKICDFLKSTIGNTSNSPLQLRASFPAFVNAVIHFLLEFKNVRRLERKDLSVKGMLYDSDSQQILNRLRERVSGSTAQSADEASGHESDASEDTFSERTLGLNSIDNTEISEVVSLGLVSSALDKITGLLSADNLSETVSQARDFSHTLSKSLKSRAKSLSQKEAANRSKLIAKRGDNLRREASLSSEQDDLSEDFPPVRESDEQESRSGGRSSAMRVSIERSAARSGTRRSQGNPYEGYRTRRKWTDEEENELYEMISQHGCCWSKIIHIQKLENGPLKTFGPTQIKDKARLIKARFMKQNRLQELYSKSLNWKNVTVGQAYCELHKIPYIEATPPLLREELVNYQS
B3: Telomeric repeat-binding factor 2 (Homo sapiens), Q15554 (parent)
chain: MAAGAGTAGPASGPGVVRDPAASQPRKRPGREGGEGARRSDTMAGGGGSSDGSGRAAGRRASRSSGRARRGRHEPGLGGPAERGAGEARLEEAVNRWVLKFYFHEALRAFRGSRYGDFRQIRDIMQALLVRPLGKEHTVSRLLRVMQCLSRIEEGENLDCSFDMEAELTPLESAINVLEMIKTEFTLTEAVVESSRKLVKEAAVIICIKNKEFEKASKILKKHMSKDPTTQKLRNDLLNIIREKNLAHPVIQNFSYETFQQKMLRFLESHLDDAEPYLLTMAKKALKSESAASSTGKEDKQPAPGPVEKPPREPARQLRNPPTTIGMMTLKAAFKTLSGAQDSEAAFAKLDQKDLVLPTQALPASPALKNKRPRKDENESSAPADGEGGSELQPKNKRMTISRLVLEEDSQSTEPSAGLNSSQEAASAPPSKPTVLNQPLPGEKNPKVPKGKWNSSNGVEEKETWVEEDELFQVQAAPDEDSTTNITKKQKWTVEESEWVKAGVQKYGEGNWAAISKNYPFVNRTAVMIKDRWRTMKRLGMN
partner: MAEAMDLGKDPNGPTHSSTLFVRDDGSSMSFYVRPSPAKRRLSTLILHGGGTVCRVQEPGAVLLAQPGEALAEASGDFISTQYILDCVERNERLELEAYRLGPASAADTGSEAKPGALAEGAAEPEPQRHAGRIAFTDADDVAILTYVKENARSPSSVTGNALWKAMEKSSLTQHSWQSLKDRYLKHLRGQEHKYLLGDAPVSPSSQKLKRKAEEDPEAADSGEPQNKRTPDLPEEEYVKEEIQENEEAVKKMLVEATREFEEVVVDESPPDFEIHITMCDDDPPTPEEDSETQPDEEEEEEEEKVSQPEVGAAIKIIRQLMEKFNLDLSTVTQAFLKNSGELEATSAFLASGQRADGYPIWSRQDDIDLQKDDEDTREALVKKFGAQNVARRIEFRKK
B4: Telomere length regulator taz1 (Schizosaccharomyces pombe (strain ATCC 38366 / 972)), P79005 (parent)
chain: B2 partner
partner: B2 chain
B5: Telomeric repeat-binding factor 2-interacting protein 1 (Homo sapiens), Q9NYB0 (parent)
chain: B3 partner

Variants of: B1
Settings: with sir3_yeast SIR3, P06701
Sequence of sir3_yeast SIR3, P06701 (P06701 whole entry): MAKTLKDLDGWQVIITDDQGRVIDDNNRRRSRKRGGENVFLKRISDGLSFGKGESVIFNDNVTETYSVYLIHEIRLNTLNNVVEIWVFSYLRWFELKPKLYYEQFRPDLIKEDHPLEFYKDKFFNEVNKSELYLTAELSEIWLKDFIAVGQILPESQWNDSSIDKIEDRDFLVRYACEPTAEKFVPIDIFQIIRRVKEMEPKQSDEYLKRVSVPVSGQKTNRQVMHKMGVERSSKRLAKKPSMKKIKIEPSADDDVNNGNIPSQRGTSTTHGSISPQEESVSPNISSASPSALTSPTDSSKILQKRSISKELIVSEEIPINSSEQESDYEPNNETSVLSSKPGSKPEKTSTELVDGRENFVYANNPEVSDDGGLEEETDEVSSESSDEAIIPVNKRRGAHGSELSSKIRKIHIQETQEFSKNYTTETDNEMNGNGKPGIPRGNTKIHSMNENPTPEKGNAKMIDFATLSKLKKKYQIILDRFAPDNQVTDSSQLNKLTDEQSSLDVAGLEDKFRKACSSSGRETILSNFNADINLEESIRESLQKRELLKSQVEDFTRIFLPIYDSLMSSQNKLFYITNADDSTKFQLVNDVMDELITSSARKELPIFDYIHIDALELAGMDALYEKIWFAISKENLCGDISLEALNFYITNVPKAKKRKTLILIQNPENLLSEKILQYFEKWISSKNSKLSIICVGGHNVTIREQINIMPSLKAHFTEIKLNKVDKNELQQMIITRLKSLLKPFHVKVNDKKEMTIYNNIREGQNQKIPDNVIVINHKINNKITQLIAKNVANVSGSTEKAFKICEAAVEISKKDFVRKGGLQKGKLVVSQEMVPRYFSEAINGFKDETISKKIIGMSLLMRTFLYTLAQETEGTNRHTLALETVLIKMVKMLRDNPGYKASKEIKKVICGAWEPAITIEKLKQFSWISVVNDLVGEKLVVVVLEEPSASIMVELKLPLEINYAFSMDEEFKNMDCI

Variant | effect of a mutation on the interaction
P730R | decreasing interaction
A733R | disrupting interaction
G760R | disrupting interaction
L755R | disrupting interaction
V737R | disrupting interaction

Variants of: B2
Settings: with taz1_schpo taz1, P79005

Variant | effect of a mutation on the interaction
I655R | disrupting interaction
V651R | decreasing interaction

Variants of: B3
Settings: with te2ip_human TERF2IP

Variant | effect of a mutation on the interaction
L330E | disrupting interaction strength
L330R | disrupting interaction strength

Variants of: B4
Settings: with rap1_schpo rap1, Q96TL7

Variant | effect of a mutation on the interaction
V387R | decreasing interaction
I379R | disrupting interaction

Variants of: B4
Settings: with rap1_schpo rap1, Q96TL7
Remark: another data set of the same source

Variant | effect of a mutation on the interaction
R386E | disrupting interaction
I379R | disrupting interaction strength
I379A | disrupting interaction strength
R384E | decreasing interaction
L383A | disrupting interaction
L383R | disrupting interaction
L380R | decreasing interaction

Variants of: B5
Settings: with terf2_human TERF2, Q15554

Variant | effect of a mutation on the interaction
MAEAMDLGKDPNGPTHSSTLFVRDDGSSMSFYVRPSPAKRRLSTLILHGGGTVCRVQEPGAVLLAQPGEALAEASGDFISTQYILDCVERNERLELEAYRLGPASAADTGSEAKPGALAEGAAEPEPQRHAGRIAFTDADDVAILTYVKENARSPSSVTGNALWKAMEKSSLTQHSWQSLKDRYLKHLRGQEHKYLLGDAPVSPSSQKLKRKAEEDPEAADSGEPQNKRTPDLPEEEYVKEEIQENEEAVKKMLVEATREFEEVVVDESPPDFEIHITMCDDDPPTPEEDSETQPDEEEEEEEEKVSQPEVGAAIKIIRQLMEKFNLDLSTVTQARLKNSGELEATSAFLASGQRADGYPIWSRQDDIDLQKDDEDTREALVKKFGAQNVARRIEFRKK [F336R] | disrupting interaction
MAEAMDLGKDPNGPTHSSTLFVRDDGSSMSFYVRPSPAKRRLSTLILHGGGTVCRVQEPGAVLLAQPGEALAEASGDFISTQYILDCVERNERLELEAYRLGPASAADTGSEAKPGALAEGAAEPEPQRHAGRIAFTDADDVAILTYVKENARSPSSVTGNALWKAMEKSSLTQHSWQSLKDRYLKHLRGQEHKYLLGDAPVSPSSQKLKRKAEEDPEAADSGEPQNKRTPDLPEEEYVKEEIQENEEAVKKMLVEATREFEEVVVDESPPDFEIHITMCDDDPPTPEEDSETQPDEEEEEEEEKVSQPEVGAAIKIRRQLMEKFNLDLSTVTQAFLKNSGELEATSAFLASGQRADGYPIWSRQDDIDLQKDDEDTREALVKKFGAQNVARRIEFRKK [I318R] | disrupting interaction
